Patent US6323395A, “Nucleotide sequences of maize and soybean β-Ketoacyl-Acyl Carrier Protein Synthase II and their use in the regulation of fatty acid content of oil” (Dow AgroSciences LLC, priority 1998, dated 2001)
Where two headings read alike, the source gives them in different places.

Experiments:
[1] = system: soybean β-Ketoacyl-Acyl Carrier Protein Synthase II (KAS II), purified from seed; assay: KAS II activity assay, Km from double reciprocal plots; type: biochemical; conditions: cerulenin-Sepharose fraction, substrate not named, condensing activity towards C16:0-ACP
Description: (§1) Malonyl CoA-ACP transacylase, hereafter MTA, was purified from E. coli as described by Alberts et al. (1969) Methods in Enzymology, 14:50-53. Transacylase reactions were performed in 100 μL of reaction mixture [100 mM KH2 PO4, pH 6.5, 100 μM ACP, 100 μM malonyl CoA, 10 nCi [2-^4 C] malonyl CoA (43.1 Ci/mol), and 2 mM dithiothreitol (DTT). ACP was incubated with an equal volume of 20 mM DTT for 15 min before being added to the reaction mixture. Reactions were started by adding 10 μL of either enzyme alone or enzyme that had been incubated for 15 min with an inhibitor and allowed to proceed for 5 min at 23° C. Reactions, which were terminated by adding 400 μL of ice cold 5% (v/v) perchloric acid, were then placed on ice for 20 min before being centrifuged for 5 min at 14,000×g. Pellets were washed 3× with 5% perchloric acid before being resuspended in 500 µL KH2 PO4 buffer and counted using scintillation. KAS II activity was measured by modifying the method of Garwin et al. (1980) J. Biological Chem. 255:11949-11956. […] The toluene layer (300 μL) was added to 5 mL Aquasol (NEN, Boston, Mass.) and incorporated [2-^4 ] malonyl CoA was determined by scintillation counting. […]

[2] = system: maize β-Ketoacyl-Acyl Carrier Protein Synthase II (KAS II), purified from seed; assay: as above; type: biochemical; conditions: cerulenin-Sepharose fraction, substrate not named, condensing activity towards C16:0-ACP
Description: as §1

KAS I = assay: Synthase assay with cerulenin, condensation of [2-14C]malonyl-CoA with acyl-ACP; type: biochemical; conditions: cerulenin at concentrations of 5 μM or greater
[3] = system: KAS II (soybean and maize KAS II expressed in E. coli); assay: as above; type: biochemical; conditions: cerulenin 50 μM
Description: Malonyl CoA-ACP transacylase, hereafter MTA, was purified from E. coli as described by Alberts et al. (1969) Methods in Enzymology, 14:50-53. Transacylase reactions were performed in 100 μL of reaction mixture [100 mM KH2 PO4, pH 6.5, 100 μM ACP, 100 μM malonyl CoA, 10 nCi [2-^4 C] malonyl CoA (43.1 Ci/mol), and 2 mM dithiothreitol (DTT). ACP was incubated with an equal volume of 20 mM DTT for 15 min before being added to the reaction mixture. Reactions were started by adding 10 μL of either enzyme alone or enzyme that had been incubated for 15 min with an inhibitor and allowed to proceed for 5 min at 23° C. […] Pellets were washed 3× with 5% perchloric acid before being resuspended in 500 µL KH2 PO4 buffer and counted using scintillation. KAS II activity was measured by modifying the method of Garwin et al. (1980) J. Biological Chem. 255:11949-11956. […] The toluene layer (300 μL) was added to 5 mL Aquasol (NEN, Boston, Mass.) and incorporated [2-^4 ] malonyl CoA was determined by scintillation counting.
For enzymatic analysis of E coli expressed soybean and maize KAS II, substrates were made as follows: ACP (Sigma Chemical Co.) was further purified by three cycles of precipitation at pH 4.0 using 10% (v/v) acetic acid followed by resolubilization in 50 mM Tris-HCl, pH 8.0. […] Incorporated malonyl-CoA was extracted into toluene prior to quantitating by liquid scintillation counting. […]

[4] = molecular target: C16:0-ACP (palmitoyl-acyl carrier protein) made from bought ACP (Escherichia coli (strain K12)) (UniProt P0A6A8)
[5] = molecular target: C10:0-ACP (decanoic acid acyl-acyl carrier protein) made from bought ACP (Escherichia coli (strain K12)) (UniProt P0A6A8)
Chain of C10:0-ACP (decanoic acid acyl-acyl carrier protein) made from bought ACP (Escherichia coli (strain K12)) (P0A6A8 2-78 limits assumed): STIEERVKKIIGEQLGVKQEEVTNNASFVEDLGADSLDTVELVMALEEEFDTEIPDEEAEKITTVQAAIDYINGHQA

[6] = molecular target: C16:0-ACP (palmitoyl-acyl carrier protein) made from bought ACP (Escherichia coli (strain K12)) (UniProt P0A6A8); remark: listed apart in the source
Target sequence in this assay (P0A6A8 2-78 limits assumed): as above

[7] = molecular target: the molecule itself; assay: gel filtration on Superdex 200: native molecular weight 82,000±5,000 against a subunit size of 46 kDa by SDS-PAGE
Description: The molecular mass of native KAS II was determined by gel filtration using a Superdex 200 column (Pharmacia LKB Biotechnology, Inc.) equilibrated in 25 mM KH_2PO_4 (pH7.0). The column was calibrated using protein standards (BioRAD, Hercules, Calif.), which included blue dextran, thyroglobin (M_r, 670,000), bovine gamma globulin (Mr_r, 158,000), chicken ovalbumin (M_r, 44,000), equine myoglobin (M_r, 17,000), vitamin B-12 (M_r, 1,350).

[8] = molecular target: C10:0-ACP (decanoic acid acyl-acyl carrier protein) made from bought ACP (Escherichia coli (strain K12)) (UniProt P0A6A8); remark: listed apart in the source
[9] = molecular target: C16:0-ACP (palmitoyl-acyl carrier protein) made from bought ACP (Escherichia coli (strain K12)) (UniProt P0A6A8); remark: listed apart in the source
Target sequence in this assay (P0A6A8 2-78 limits assumed): as above

## palmitoyl-ACP [C16:0-ACP]
[1]
  Km: 18 µM
[2]
  Km: 14.1 µM

## C/C=C/C/C=C/CCC(=O)[C@H]1O[C@H]1C(N)=O [cerulenin]
KAS I
  inhibition of KAS I activity: completely inhibits
[3]
  inhibition of KAS II: about 50%

## soybean β-Ketoacyl-Acyl Carrier Protein Synthase II purified from soybean seed (enzyme)
[4]
  Km: 18 µM

B1: maize β-Ketoacyl-Acyl Carrier Protein Synthase II purified from maize seed (enzyme)
chain: MAVALQAERSVIEKKKPDIKQRRVVVTGMGVVTPLGHDPDVFYNNLLDGVSGISEIERFDCSNFPTRIAGEIKSFSTDGWVAPKLAKRMDKFMLYLITAGKKALENGGLTEELRNELDKTRCGVLIGSAMGGMKVFNDAIEALRVSYKKMNPFCVPFATTNMGSAILAMDLGWMGPNYSISTACATSNFCILNAANHIRRGEADVMLCGGSDAPLIPIGLGGFVACRALSQRNSDPTKASRPWDMGRDGFVMGEGAGVLVLEELEHAKERGATIYAEFLGGSFTCDAYHMTEPHPEGRGIALCIEKALADAGVAREEINYVNAHATSTQAGDLKEYEAIVRCFRQNPQLRVNSTKSMTGHLIGAAGGIEAVASIQAIRTGWVHPNLNLENPEDTVDVGVLVGSQKERCEVKVALSNSFGFGGHNSSILFAPFK
[4]
  Km: 14.1 µM

B2: maize KAS II expressed in E. coli from pDAB388 (enzyme)
chain: MAVALQAERSVIEKKKPDIKQRRVVVTGMGVVTPLGHDPDVFYNNLLDGVSGISEIERFDCSNFPTRIAGEIKSFSTDGWVAPKLAKRMDKFMLYLITAGKKALENGGLTEELRNELDKTRCGVLIGSAMGGMKVFNDAIEALRVSYKKMNPFCVPFATTNMGSAILAMDLGWMGPNYSISTACATSNFCILNAANHIRRGEADVMLCGGSDAPLIPIGLGGFVACRALSQRNSDPTKASRPWDMGRDGFVMGEGAGVLVLEELEHAKERGATIYAEFLGGSFTCDAYHMTEPHPEGRGIALCIEKALADAGVAREEINYVNAHATSTQAGDLKEYEAIVRCFRQNPQLRVNSTKSMTGHLIGAAGGIEAVASIQAIRTGWVHPNLNLENPEDTVDVGVLVGSQKERCEVKVALSNSFGFGGHNSSILFAPFK
[5]
  synthase activity: condensation of [2-14C]malonyl-CoA with C10:0-ACP to C12:0-ACP (counts per minute per minute): 734
[6]
  synthase activity: condensation of [2-14C]malonyl-CoA with C16:0-ACP to C18:0-ACP (counts per minute per minute): 909

B3: second soybean KAS II expressed in E. coli from pDAB394 (enzyme)
chain: MAVALQPTQEITTIKKPPTKQRRVVVTGLGVVTPLGHEPDIFYNNLLDGASGISEIETFDCAEYPTRIAGEIKSFSTDGWVAPKLSKRMDKFMLYMLTAGKKALVDGGITDDVMDELNKEKCGVLIGSAMGGMKVFNDAIEALRISYKKMKPFCVPFATTNMGSAMLAMDLGWMGPNYSISTACATSNFCILNAANHIIRGEADVMLCGGSDAAIIPIGLGGFVACRALSQRNTDPTKASRPWDINRDGFVMGEGAGVLLLEELEHAKERGATIYAEFLGGSFTCDAYHVTEPRPDGAGVILCIEKALAQSGVSKEDVNYINAHATSTPAGDLKEYQALMHCFGQNPELRVNSTKSMIGHLLGAAGGVAAVATIQAIRTGWVHPNINLENPDNGVDAKVLVGSKKERLDVKAALSNSFGFGGHNSSIIFAPY
[5]
  synthase activity: condensation of [2-14C]malonyl-CoA with C10:0-ACP to C12:0-ACP (counts per minute per minute): 890
[6]
  synthase activity: condensation of [2-14C]malonyl-CoA with C16:0-ACP to C18:0-ACP (counts per minute per minute): 2160

B4: first soybean KAS II expressed in E. coli from pDAB393 (enzyme)
chain: MAVALQPTQEVTTIKKPPTKQRRVVVTGLGVVTPLGHEPDIFYNNLLDGVSGISEIETFDCAEYPTRIAGEIKSFSTDGWVAPKLSKRMDKFMLYMLTAGKKALVDGGITDDVMDELNKDKCGVLIGSAMGGMKVFNDAIEALRISYKKMNPFCVPFATTNMGSAMLAMDLGWMGPNYSISTACATSNFCILNAANHIIRGEADVMLCGGSDAAIIPIGLGGFVACRALSQRNTDPTKASRPWDINRDGFVMGEGAGVLLLEELEHAKKRGATIYAEFLGGSFTCDAYHVTEPRPDGAGVILCIEKALAQSGVSKEDVNYINAHATSTPAGDLKEYQALMHCFGQNPKLRVNSTKSMIGHLLGAAGAVEAVATIQAIRTGWVHPNINLEKPDNGVDAKVLVGSKKERLDVKAALSNSFGFGGHNSSIIFAPYK
[7]
  binding result: binds
[8]
  synthase activity: condensation of [2-14C]malonyl-CoA with C10:0-ACP to C12:0-ACP (counts per minute per minute): 207
[9]
  synthase activity: condensation of [2-14C]malonyl-CoA with C16:0-ACP to C18:0-ACP (counts per minute per minute): 1930
